Target: His标签蛋白
Assay: ELISA titre of mouse ascites

B1: 杂交瘤细胞株4C9(CCTCC NO. C2015198)分泌的抗His标签蛋白单克隆抗体 (antibody, V domains shown)
VH: EVQLQESGAELMKPGASVKLSCKATGYTFTGYWIEWVKQRPGHGLEWIGEILPGSGSINHNENFKDKATFTADTSSNTAYMQLNSLTTEDSAVYFCAGGGGYWGQGTTLTVSS
VL: EIVITQTPLSLPVSLGDQASISCRSSRSIVHSNGNTYLEWYLQKPGQSPKLLIYKVSNRVSGVPDRFSGSGSGTDFTLKISRVEAEDLGVYYCFQGSHVPLTFGAGTKLELKR
Question: With B1 as the binder, how does the ELISA效价 read?
Answer: 1.28e+06
